One assay relates to HUVECs. Nature of the assay: VEGF-induced tube formation (sprouting assay) of HUVECs in 3D fibrin gels. It counts as cell-based, human. The note with it: for VEGF-induced tube formation: HUVECs in fibrin gel, 25 ng/ml VEGF, DAND5 0, 15, 30 or 60 ng/ml. The method, then: Sprouting assays were performed as previously described (2). Briefly, HUVECs (250,000 cells/well in 6-well plates) were resuspended in 300 μl fibrinogen solution (2.5 mg/ml fibrinogen, Sigma-Aldrich) in EBM-2 (Lonza) supplemented with 2% FBS and 50 μg/ml aprotinin (Sigma-Aldrich), and plated on top of a pre-coated fibrin layer (400 μl fibrinogen solution clotted with 1 U thrombin (Sigma-Aldrich) for 20 min at 37° C.). The second layer of fibrin was clotted for 1 hr at 37° C. NHDF cells (250,000 cells/well), in EBM-2 supplemented with 2% FBS and 25 ng/ml VEGF, with or without DAND5 (0, 15, 30 or 60 ng/ml), were then plated on top of the fibrin layers. Cultures were incubated at 37° C., 5% CO2.
To test whether DAND5 affects sprouting angiogenesis, human umbilical vein endothelial cells (HUVECs) were cultured in 3D fibrin gels and tube formation was induced with VEGF as previously described (2).

Assay [1] deals with human pluripotent stem cells / stem cell-derived human cones. The note with it: cited from earlier work.
Assay [2] has the same test system. Put plainly: Cone photoreceptor differentiation, maintenance and survival (earlier study and unpublished work). In kind it is cell-based. The conditions noted are these: in vitro, unpublished work. From the text:
Inactivation of DAND5 in mice leads to multiple laterality and cardiovascular defects and a significant proportion of animals die perinatally. […] However, prior to the present invention, it was unknown that DAND5, or any of the six other members of the DAN family of BMP antagonists, could play a role in inhibiting and preventing ocular neovascularization and pathological angiogenesis.

B1: DAND5: human recombinant DAND5/COCO biologically active fragment produced in E. coli, predicted 18.2 kDa monomer, R&D systems 3047-CC-050 (protein)
chain: MRPEPQSPRPQSWAAANQTWALGPGALPPLVPASALGSWKAFLGLQKARQLGMGRLQRGQDEVAAVTLPLNPQEVIQGMCKAVPFVQVFSRPGCSAIRLRNHLCFGHCSSLYIPGSDPTPLVLCNSCMPARKRWAPVVLWCLTGSSASRRRVKISTMLIEGCHCSPKA
As for B1, the VEGF-induced tube formation result with HUVECs was “efficiently suppressed VEGF-induced tube formation in a dose-dependent manner”; in the assay with HUVECs (listed as Dand5), “inhibited tube formation in a dose dependent manner”. For the same molecule, the vascular tube area entry in the assay with HUVECs (quantification of endothelial tubes, increasing concentrations of DAND5) was “significant reduction in vascular tube area with increasing concentrations”. Besides, the “cone photoreceptor differentiation and maintenance” value in assay [1] (recent study (16)) was “potent inducer of cone photoreceptor differentiation and maintenance”. Further, the “differentiation of human pluripotent stem cells into cone photoreceptors” value in assay [1] (reference (16)) is recorded as “can promote the differentiation of human pluripotent stem cells into cone photoreceptors”. Also, the “survival of stem cell-derived human cones” value in assay [2] is given as “displays pro-survival activities”.

The values are drawn from US20220265772A1, “USES OF DAN FAMILY BMP ANTAGONISTS FOR INHIBITING OCULAR NEOVASCULARIZATION AND TREATING OCULAR CONDITIONS” (9636137 Canada Inc., priority 2019, published 2022).
